{"source": "patent US20150322162A1", "key": {"[1]": {"biological_target": "HER2-Fc (#1129-ER, R&D Systems) (UniProt P04626)", "experiment": "SPR, Biacore T100; antibody captured by human Fab binder on CM5 chip, HER2-Fc injected"}, "[2]": {"biological_target": "c-Met-Fc (#358-MT/CF, R&D Systems) (UniProt P08581)", "sequence (P08581 25-932 limits assumed)": "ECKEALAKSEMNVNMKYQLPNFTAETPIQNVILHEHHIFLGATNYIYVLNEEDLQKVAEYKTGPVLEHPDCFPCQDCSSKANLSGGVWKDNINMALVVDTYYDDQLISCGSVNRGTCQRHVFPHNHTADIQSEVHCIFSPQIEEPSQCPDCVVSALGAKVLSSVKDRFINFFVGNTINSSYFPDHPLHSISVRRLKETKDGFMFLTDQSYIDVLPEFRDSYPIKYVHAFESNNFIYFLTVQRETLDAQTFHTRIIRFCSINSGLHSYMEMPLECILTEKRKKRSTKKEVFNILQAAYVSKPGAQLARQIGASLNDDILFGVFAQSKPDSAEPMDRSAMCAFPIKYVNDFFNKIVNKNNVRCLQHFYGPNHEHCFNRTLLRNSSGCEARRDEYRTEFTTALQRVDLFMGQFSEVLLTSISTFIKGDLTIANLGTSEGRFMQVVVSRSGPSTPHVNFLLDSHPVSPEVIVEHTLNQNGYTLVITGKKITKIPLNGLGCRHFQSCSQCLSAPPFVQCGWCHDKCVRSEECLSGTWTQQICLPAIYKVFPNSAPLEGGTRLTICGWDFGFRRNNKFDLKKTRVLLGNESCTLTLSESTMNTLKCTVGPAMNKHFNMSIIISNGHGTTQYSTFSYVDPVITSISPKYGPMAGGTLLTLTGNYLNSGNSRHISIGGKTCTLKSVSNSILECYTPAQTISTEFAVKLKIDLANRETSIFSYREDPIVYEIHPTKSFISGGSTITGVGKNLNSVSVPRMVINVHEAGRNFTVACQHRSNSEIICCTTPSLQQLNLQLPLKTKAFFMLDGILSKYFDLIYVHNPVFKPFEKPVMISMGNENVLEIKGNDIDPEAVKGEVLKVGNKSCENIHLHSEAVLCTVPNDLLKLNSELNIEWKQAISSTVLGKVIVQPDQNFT", "experiment": "SPR, Biacore T100; antibody captured by human Fab binder on CM5 chip, c-Met-Fc injected"}}}
{"binder": "MH2-12 anti-c-Met/anti-HER2 bispecific antibody (bispecific antibody, part only; not given: nothing needed for binding, IgG2, not shown: another chain or arm of the molecule; small tags and cut ends) heavy: EVQLVESGGGLVQPGGSLRLSCAASGFTFTDYYMSWVRQAPGKGLEWLGFIRNKANGYTTEYSASVKGRFTISRDNSKNTLYLQMNSLRAEDTAVYYCARDNWFAYWGQGTLVTVSSASTKGPSVFPLAPCSRSTSESTAALGCLVKDYFPEPVTVSWNSGALTSGVHTFPAVLQSSGLYSLSSVVTVPSSNFGTQTYTCNVDHKPSNTKVDKTVERKCCVECPPCPAPPVAGPSVFLFPPKPKDTLMISRTPEVTCVVVDVSHEDPEVQFNWYVDGVEVHNAKTKPREEQFNSTFRVVSVLTVVHQDWLNGKEYKCKVSNKGLPAPIEKTISKTKGQPREPQVYTLPPSREEMTKNQVSLTCLVKGFYPSDIAVEWESNGQPENNYKTTPPMLDSDGSFFLYSKLTVDKSRWQQGNVFSCSVMHEALHNHYTQKSLSLSPGKGGGGSGGGGSEVQLVQSGAEVKKPGESLKISCKGSGYSFTSYWIGWVRQMPGKGLEWMGIIYPGDSDTRYSPSFQGQVTISADKSISTAYLQWSSLKASDTAMYYCARHYYDSSGYSYFPDYWGQGTLVTVSS VL: QTVVTQEPSFSVSPGGTVTLTCGLSSGSVSTSYYPSWYQQTPGQAPRTLIYSTNTRSSGVPDRFSGSILGNKAALTITGAQADDESDYYCVLYMGSGIWVFGGGTKLTVL light: DIQMTQSPSSLSASVGDRVTITCKSSQSLLASGNQNNYLAWYQQKPGKAPKMLIIWASTRVSGVPSRFSGSGSGTDFTLTISSLQPEDFATYYCQQSYSRPYTFGQGTKVEIKRTVAAPSVFIFPPSDEQLKSGTASVVCLLNNFYPREAKVQWKVDNALQSGNSQESVTEQDSKDSTYSLSSTLTLSKADYEKHKVYACEVTHQGLSSPVTKSFNRGEC", "values": [{"measurement": "Kd", "setting": "[1]", "value": "< 0.01", "unit": "nM"}, {"measurement": "koff", "setting": "[1]", "value": "< 5.8e-05", "unit": "s⁻¹"}, {"measurement": "kon", "setting": "[1]", "value": 200000, "unit": "M⁻¹ s⁻¹"}, {"measurement": "Kd", "setting": "[2]", "value": 0.04, "unit": "nM"}, {"measurement": "koff", "setting": "[2]", "value": "1.9e-05", "unit": "s⁻¹"}, {"measurement": "kon", "setting": "[2]", "value": 500000, "unit": "M⁻¹ s⁻¹"}]}
{"binder": "MH2-18 anti-c-Met/anti-HER2 bispecific antibody (bispecific antibody, part only; not given: nothing needed for binding, IgG2, not shown: another chain or arm of the molecule; small tags and cut ends) heavy: EVQLVESGGGLVQPGGSLRLSCAASGFTFTDYYMSWVRQAPGKGLEWLGFIRNKANGYTTEYSASVKGRFTISRDNSKNTLYLQMNSLRAEDTAVYYCARDNWFAYWGQGTLVTVSSASTKGPSVFPLAPCSRSTSESTAALGCLVKDYFPEPVTVSWNSGALTSGVHTFPAVLQSSGLYSLSSVVTVPSSNFGTQTYTCNVDHKPSNTKVDKTVERKCCVECPPCPAPPVAGPSVFLFPPKPKDTLMISRTPEVTCVVVDVSHEDPEVQFNWYVDGVEVHNAKTKPREEQFNSTFRVVSVLTVVHQDWLNGKEYKCKVSNKGLPAPIEKTISKTKGQPREPQVYTLPPSREEMTKNQVSLTCLVKGFYPSDIAVEWESNGQPENNYKTTPPMLDSDGSFFLYSKLTVDKSRWQQGNVFSCSVMHEALHNHYTQKSLSLSPGKGGGGSGGGGSEVQLVQSGAEVKKPGESLKISCKGSGYSFTSYWIGWVRQMPGKGLEWMGIIYPGDSDTRYSPSFQGQVTISADKSISTAYLQWSSLKASDTAMYYCARLVVGANPPTYYFDYWGQGTLVTVSS VL: QAVVTQEPSFSVSPGGTVTLTCGLSSGSVSTSYYPSWYQQTPGQAPRTLIYSTNTRSSGVPDRFSGSILGNKAALTITGAQTDDESDYYCVLYMGSGISLFGGGTKVTVL light: DIQMTQSPSSLSASVGDRVTITCKSSQSLLASGNQNNYLAWYQQKPGKAPKMLIIWASTRVSGVPSRFSGSGSGTDFTLTISSLQPEDFATYYCQQSYSRPYTFGQGTKVEIKRTVAAPSVFIFPPSDEQLKSGTASVVCLLNNFYPREAKVQWKVDNALQSGNSQESVTEQDSKDSTYSLSSTLTLSKADYEKHKVYACEVTHQGLSSPVTKSFNRGEC", "values": [{"measurement": "Kd", "setting": "[1]", "value": "< 0.01", "unit": "nM"}, {"measurement": "koff", "setting": "[1]", "value": "< 1.3e-05", "unit": "s⁻¹"}, {"measurement": "kon", "setting": "[1]", "value": 820000, "unit": "M⁻¹ s⁻¹"}, {"measurement": "Kd", "setting": "[2]", "value": 0.03, "unit": "nM"}, {"measurement": "koff", "setting": "[2]", "value": "1.5e-05", "unit": "s⁻¹"}, {"measurement": "kon", "setting": "[2]", "value": 590000, "unit": "M⁻¹ s⁻¹"}]}
